These results are taken from patent US20150259426A1 (Novartis, published 2015).

Test [1] deals with T1, cell-bound human DR5 (Colo205 and other human cell lines) (human, UniProt O14763 56-440).
T1 construct: endogenous DR5 of the cell lines
As to the kind of experiment: FACS, periplasmic extract on Colo205 cells, anti-myc detection.

Test [2] addresses T2, cynomolgus DR5-Fc fusion protein (cyno DR5 amino acids 56 to 213 fused with human IgG1 Fc) (cynomolgus; human). Description: SPR (Biacore), CM5 chip coated with cynomolgus DR5-Fc, 1 to 100 nM NB construct. On the technique in general: In SPR one partner is held on a chip, and binding of the other changes the refractive index at the surface.
Test [3] has as its target T2, cynomolgus DR5-Fc fusion protein (cyno …). As to the kind of experiment: ELISA, periplasmic extract, plate coated with cynomolgus DR5-Fc, anti-myc detection.
Test [4] deals with T3, cell-bound cynomolgus DR5 (CHO-K1 cells transfected with the full length cynoDR5 gene) (cynomolgus).
T3 construct: whole, on cells
As to the kind of experiment: FACS, periplasmic extract on CHO-K1 cells expressing cynomolgus DR5, anti-myc detection.

Test [5] has as its target cynomolgus DR5 (construct used not stated) (cynomolgus). Description: SPR kinetics (Biacore), cynomolgus DR5.
Test [6] deals with T3, cell-bound cynomolgus DR5 (CHO-K1 cells …). Description: FACS saturation binding, apparent KD, cell-bound cynomolgus DR5.
Test [7] concerns the target T1, cell-bound human DR5 (Colo205 and other …). Description: cell-based or functional assay.
Test [8] shares this target. Description: cell-based or functional assay. The source holds these as a separate data set.
The next test addresses T4, hGITR (human, UniProt Q9Y5U5).
T4 construct: extracellular domain, E. coli lysate captured on a His capture plate; Target named only on the sheet; the construct is not described in the text
T4 sequence (extracellular domain, looked up): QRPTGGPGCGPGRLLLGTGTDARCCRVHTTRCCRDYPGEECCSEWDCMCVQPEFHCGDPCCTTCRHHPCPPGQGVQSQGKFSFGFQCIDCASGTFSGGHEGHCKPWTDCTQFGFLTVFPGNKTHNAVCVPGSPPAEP
As to the kind of experiment: ELISA, receptor ECD from E. coli lysate on His capture plate.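 Further: binding specificity screen across TNF receptor superfamily ectodomains, anti-V5 detection as expression reference, primary antibody incubation 1 h at room temperature.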 A general note: ELISA stands for enzyme-linked immunosorbent assay.

For test [9], the target named is T5, TNFR1 extracellular domain (TNFRSF1A, Leu34-Thr211) (UniProt P19438 34-211).
T5 construct: range 34-211; ECD cloned into pBadThioTopo; E. coli lysate on His capture plates
T5 sequence (looked up): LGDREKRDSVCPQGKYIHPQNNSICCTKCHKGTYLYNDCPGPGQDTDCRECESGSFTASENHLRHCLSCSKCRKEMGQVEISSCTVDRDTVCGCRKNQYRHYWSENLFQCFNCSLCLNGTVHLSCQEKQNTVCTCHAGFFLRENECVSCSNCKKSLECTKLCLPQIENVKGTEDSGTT
The test is described as above.

For test [10], the target named is T6, TNFR3 extracellular domain (TNFRSF3, Pro30-Thr224) (UniProt P36941 30-224).
T6 construct: range 30-224; ECD cloned into pBadThioTopo; E. coli lysate on His capture plates
The description is as above.

Test [11] has as its target T7, OX40 extracellular domain (TNFRSF4, Gly33-Gly212) (UniProt P43489 33-212).
T7 construct: ECD cloned into pBadThioTopo; E. coli lysate on His capture plates
T7 sequence (looked up): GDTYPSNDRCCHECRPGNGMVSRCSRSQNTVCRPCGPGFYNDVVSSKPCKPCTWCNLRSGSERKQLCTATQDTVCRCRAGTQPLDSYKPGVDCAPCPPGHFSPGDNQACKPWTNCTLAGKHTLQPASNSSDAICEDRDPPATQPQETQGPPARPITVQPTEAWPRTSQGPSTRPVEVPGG
Described as above.

Test [12] has as its target T8, CD40 extracellular domain (TNFRSF5, Val18-Leu192) (UniProt P25942 18-192).
T8 construct: range 18-192; ECD cloned into pBadThioTopo; E. coli lysate on His capture plates
Described as above.

Test [13] addresses T9, FAS extracellular domain (TNFRSF6, Ser20-Gly175) (UniProt P25445 20-175).
T9 construct: ECD cloned into pBadThioTopo; E. coli lysate on His capture plates
T9 sequence (looked up): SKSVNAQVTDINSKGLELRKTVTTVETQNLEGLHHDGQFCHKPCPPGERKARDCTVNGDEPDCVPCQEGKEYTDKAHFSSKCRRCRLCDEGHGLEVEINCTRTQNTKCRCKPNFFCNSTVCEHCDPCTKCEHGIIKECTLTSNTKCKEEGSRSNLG
The test is described as above.

In test [14] the target is T10, DcR3 (TNFRSF6B, Val27-Ala176) (UniProt O95407 27-176).
T10 construct: range 27-176; ECD cloned into pBadThioTopo; E. coli lysate on His capture plates
T10 sequence (looked up): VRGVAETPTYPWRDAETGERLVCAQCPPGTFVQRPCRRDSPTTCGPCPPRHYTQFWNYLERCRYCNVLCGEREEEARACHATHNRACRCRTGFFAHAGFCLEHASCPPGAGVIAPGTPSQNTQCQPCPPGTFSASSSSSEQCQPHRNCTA
Described as above.

The target in test [15] is T11, CD27 extracellular domain (TNFRSF7, Thr21-Ser187) (UniProt P26842 21-187).
T11 construct: range 21-187; ECD cloned into pBadThioTopo; E. coli lysate on His capture plates
The test is described as above.

In test [16] the target is T12, CD137 extracellular domain (TNFRSF9, Glu19-Ile188) (UniProt Q07011 19-188).
T12 construct: range 19-188; ECD cloned into pBadThioTopo; E. coli lysate on His capture plates
The test is described as above.

Test [17] has as its target T13, DcR2 extracellular domain (TNFRSF10D, Thr57-Thr198) (UniProt Q9UBN6 57-198).
T13 construct: range 57-198; ECD cloned into pBadThioTopo; E. coli lysate on His capture plates
T13 sequence (looked up): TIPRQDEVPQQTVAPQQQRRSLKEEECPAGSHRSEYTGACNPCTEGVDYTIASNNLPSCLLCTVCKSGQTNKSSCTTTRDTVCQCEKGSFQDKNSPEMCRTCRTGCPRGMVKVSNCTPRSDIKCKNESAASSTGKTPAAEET
The test is described as above.

The target of test [18] is T14, OPG (TNFRSF11B, Lys17-Ile197) (UniProt O00300 17-197).
T14 construct: range 17-197; ECD cloned into pBadThioTopo; E. coli lysate on His capture plates
T14 sequence (looked up): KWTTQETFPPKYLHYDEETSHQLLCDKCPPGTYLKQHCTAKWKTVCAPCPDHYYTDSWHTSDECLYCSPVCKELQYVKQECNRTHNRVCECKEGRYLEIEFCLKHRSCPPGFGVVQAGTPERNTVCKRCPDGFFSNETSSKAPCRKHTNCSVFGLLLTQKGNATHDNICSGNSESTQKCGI
The description is as above.

The target of test [19] is T15, BAFFR extracellular domain (TNFRSF13C, Met1-Gly64) (UniProt Q96RJ3 1-64).
T15 construct: range 1-64; ECD cloned into pBadThioTopo; E. coli lysate on His capture plates
The test is described as above.

T8 sequence (P25942 18-192 limits assumed): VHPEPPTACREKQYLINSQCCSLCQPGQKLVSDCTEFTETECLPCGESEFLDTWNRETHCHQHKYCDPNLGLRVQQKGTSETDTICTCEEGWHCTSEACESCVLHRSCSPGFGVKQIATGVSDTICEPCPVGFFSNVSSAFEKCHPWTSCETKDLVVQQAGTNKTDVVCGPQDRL
T6 sequence (P36941 30-224 limits assumed): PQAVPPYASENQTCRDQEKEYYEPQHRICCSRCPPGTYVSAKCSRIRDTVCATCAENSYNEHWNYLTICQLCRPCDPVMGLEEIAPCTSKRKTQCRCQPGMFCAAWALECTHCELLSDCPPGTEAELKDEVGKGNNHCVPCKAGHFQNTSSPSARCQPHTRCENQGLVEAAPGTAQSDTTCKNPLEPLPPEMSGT
T15 sequence (Q96RJ3 1-64 limits assumed): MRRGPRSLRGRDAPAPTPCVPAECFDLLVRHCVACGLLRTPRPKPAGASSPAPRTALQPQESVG
T11 sequence (P26842 21-187 limits assumed): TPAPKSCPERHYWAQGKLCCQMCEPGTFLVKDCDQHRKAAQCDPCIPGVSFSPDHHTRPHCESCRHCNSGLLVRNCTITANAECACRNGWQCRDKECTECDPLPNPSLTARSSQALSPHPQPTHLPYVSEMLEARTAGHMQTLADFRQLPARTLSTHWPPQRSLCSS
T12 sequence (Q07011 19-188 limits assumed): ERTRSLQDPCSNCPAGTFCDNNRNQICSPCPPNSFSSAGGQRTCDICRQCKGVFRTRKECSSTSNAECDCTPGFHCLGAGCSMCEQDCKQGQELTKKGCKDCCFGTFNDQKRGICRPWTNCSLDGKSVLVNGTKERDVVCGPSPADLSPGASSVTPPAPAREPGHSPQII

B1: 11D1 (monomeric anti-DR5 NB construct) (VHH)
VHH: EVQLVESGGGLVQPGGSLRLSCAASGSIDSINNMGWYRQAPGKQRELVAEITPRGRTNYADSEKSRFTISRDNAKRTVNLQMNSLKPEDTAVYYCNAEVRERGTSWYRPDYWGQGTQVTVSS
notes: llama VHH; periplasmic extract or purified monovalent material from E. coli; not shown: C-terminal c-myc tag and (His)6 tag coded by the vector
With B1, the mean count fluorescence in [1] worked out at 919; in test [4], 417. The Kd in test [2] worked out at 220 nM. This molecule returned an ABS405 nm in [3] of 0.213 ABS405 nm.

B2: 10F1 (monomeric anti-DR5 NB construct) (VHH)
VHH: EVQLVESGGGLVQPGGSLRLSCAASGFTFSRYWMYWVRQAPGKGLEWVSAINSGGGDTYYRDSVRGRFTISRDNFKNTLYLQMNSLKSEDTAVYYCAKAEGPPTFSLIRTMTVDPGAQGTQVTVSS
notes: as for B1
Turning to B2, the mean count fluorescence in test [1] stood at 125; in test [4] it was 1630. This molecule also yielded a Kd in [2] of 140 nM. The molecule further yielded an ABS405 nm in test [3] of 0.124 ABS405 nm.

B3: 7A12 (monomeric anti-DR5 NB construct) (VHH)
VHH: EVQLVESGGGLVQAGGSLRLSCAASGRTFSNYAMGWFRQAPGKEREFVAALNWSGGSTYYVDSVKGRFTISRDNAKNTVYLQMNSLKPEDTAVYYCAAAGSFSLGGRPYGDDYWGKGTLVTVSS
notes: as for B1
Consider B3, for which the mean count fluorescence in test [1] is 1100; in [4], 24500. The Kd in test [2] came to 7.1 nM. In test [3], the ABS405 nm was 0.341 ABS405 nm.

B4: 4E6 (monomeric anti-DR5 NB construct) (VHH)
VHH: EVQLVESGGGSVQAGDSLRLSCAASGRTFGSIRVGWFRQTPGKEREFVAAINRNDGTTYYADSVKGRFTISRDNAKNTVYMQMASLKPEDTAVYYCAAGLQYNRSADRVPVGAVYWGQGTQVTVSS
notes: llama VHH; periplasmic extract or purified monovalent material from E. coli; also called 4E6 parent; wild type 4E6; not shown: C-terminal c-myc tag and (His)6 tag coded by the vector
Consider B4, for which the Kd in test [5] was 5.5 nM; in [6] it was 7.3 nM; in [2], 16 nM. Further, the mean count fluorescence was 972 in [1] and 2870 in test [4]. Further, the ABS405 nm in [3] is 0.313 ABS405 nm.

B5: 4E6-Hu (monovalent humanized, N-glycosylation knock-out variant of 4E6) (VHH)
VHH: EVQLLESGGGLVQPGGSLRLSCAASGRTFGSIRVGWFRQAPGKGREFVSAINRNDGTTYYADSVKGRFTISRDNSKNTVYLQMNSLRPEDTAVYYCAAGLQYNRAADRVPVGAVYWGQGTLVTVSS
notes: produced in E. coli and purified
On to B5, for which the Kd in [5] is 1.6 nM; in [6], 8.8 nM.

B6: 11H6 tri (trivalent anti-DR5 NB construct) (VHH)
chain: EVQLVESGGGLVQPGGSLRLSCAASGTFDKINNMGWYRQAPGKQRDLVAQITPGGITDYADSVKGRFTISRDNAKDTMYLQMNSLKPEDTAVYFCNAEILKRAYIDVYVNYWGQGTQVTVSSGGGGSGGGGSGGGGSGGGGSGGGGSGGGGSGGGGSEVQLVESGGGLVQPGGSLRLSCAASGTFDKINNMGWYRQAPGKQRDLVAQITPGGITDYADSVKGRFTISRDNAKDTMYLQMNSLKPEDTAVYFCNAEILKRAYIDVYVNYWGQGTQVTVSSGGGGSGGGGSGGGGSGGGGSGGGGSGGGGSGGGGSEVQLVESGGGLVQPGGSLRLSCAASGTFDKINNMGWYRQAPGKQRDLVAQITPGGITDYADSVKGRFTISRDNAKDTMYLQMNSLKPEDTAVYFCNAEILKRAYIDVYVNYWGQGTQVTVSS
notes: three VHH units in one chain joined by GlySer linkers; not shown: CMYC-HIS6 tag
On to B6, for which, in [7], the “IC50, cell survival, Colo205” value worked out at 0.0458 nM. Besides, in test [8], the “IC50, cell survival, A549” value was at least 20 nM; the “IC50, cell survival, ARPE-19” value was at least 20 nM; the “IC50, cell survival, H226” value is at least 20 nM; the “IC50, cell survival, H2052” value came to 0.36 nM. Besides, in test [8], the “IC50, cell survival, H2122” value was 0.012 nM; the “IC50, cell survival, Huvec” value is at least 20 nM; the “IC50, cell survival, IMR-90” value is at least 20 nM; the “IC50, cell survival, Jurkat” value was at least 20 nM. In addition, in [8], the “IC50, cell survival, M30” value was at least 20 nM; the “IC50, cell survival, MiaPaCa-2” value is at least 20 nM; the “IC50, cell survival, Molt4” value was at least 20 nM; the “IC50, cell survival, Panc-1” value is at least 20 nM. In addition, the binding result with hGITR is “no binding (tested: not stated)”. The binding result in test [9] was “no binding (tested: not stated)”. For the same molecule, the binding result in [10] is “no binding (tested: not stated)”. In addition, the binding result in [11] is reported as “no binding (tested: not stated)”. For the same molecule, the binding result in test [12] is “no binding (tested: not stated)”. Besides, the binding result in test [13] is listed as “no binding (tested: not stated)”. The binding result in test [14] is reported as “no binding (tested: not stated)”. Further, the binding result in test [15] is reported as “no binding (tested: not stated)”. Moreover, the binding result in [16] was “no binding (tested: not stated)”. Moreover, the binding result in [17] is “no binding (tested: not stated)”. Also, the binding result in test [18] is listed as “no binding (tested: not stated)”. In addition, the binding result in test [19] is “no binding (tested: not stated)”. In test [2], the Kd is below 0.3 nM.
